Reference: patent US20240352438A1, “MEANS AND METHODS FOR DETOXIFYING OCHRATOXIN A” (DSM Austria GmbH, priority 2021, published 2024)

How the values were obtained:
[1] = Thermostability assay: residual OTA detoxification activity after 10 min incubation at 45-99° C. (T50); type: physicochemical; conditions: for T50 (temperature at which 50% of the initial activity was maintained): 0.1 mg/mL protein in 20 mM Tris-HCl pH 7.5, residual OTA detoxification activity relative to 4° C. reference aliquot; for T50 (temperature range in which 50% of the initial activity was lost after the incubation): 0.1 mg/mL in 20 mM Tris-HCl buffer pH 7.5
Procedure: Stability was determined in terms of thermostability. Notwithstanding, a person having skill in the art is aware that stability towards high temperature (e.g. more than 30° C.) often correlates with stability towards other non-standard conditions such as stability towards acidic or basic pH (e.g. below pH 6.5 or above pH 7.5, respectively), towards elevated salt concentrations, organic solvents or drying.
To determine the kinetic stability of the produced enzymes, thermostability assays were performed. To this end, purified protein samples were diluted to a protein concentration of 0.1 mg/mL in 20 mM Tris-HCl buffer pH 7.5 and aliquots were incubated in a thermocycler for 10 min at either 45, 55, 65, 75, 80, 85, 90, 95 or 99° C. After this incubation, the aliquots were stored at 4° C. until further analysis. A reference aliquot was stored at 4° C. throughout the incubation. Subsequently, all aliquots were assayed for residual OTA detoxification activity using the assay described in Example 3. Residual enzyme activities were calculated relative to the reference aliquot. The temperature range in which 50% of the initial activity was lost after the incubation (T50), in relation to the reference aliquot was determined.

[2] = OTA detoxification activity assay (specific activity, fluorescence reduction ex/em 390/450 nm); type: biochemical; conditions: 37° C., 200 ng/mL OTA, 100 mM sodium phosphate buffer
In short: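 Recombinant enzyme preparation with 200 ng/mL OTA in 100 mM sodium phosphate, at pH 6.0 and pH 7.5, 37° C. Degradation followed as the fall in fluorescence at ex/em 390/450 nm. Specific activity taken from the initial linear slope; one unit degrades 1 μmol OTA per min at a starting OTA of […].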

B1: 34 (protein)
chain: MELAIRNGIVFNGKEIIGKTNIYVREGKIVEVSREDHSAKMEIDAKDMFVMPGLIDAHIHLSGIKGGSLLKIMFEKPEYRVLRAAKWLEKLLLAGFTTVRDCGETVSLALKRALNDGIIGGPKVIAAGKPITQTFGHGELSHDVPLEFSKTMSFSEFCDGMESCIHAARKVLRDGADFIKIFATGGVLSQRDRPEHPQLSYEEIRAIVNEAEKVNTYVAAHAHGDRGARIAIEAGVKTLEHGTLLKDETLKLMKEKNVTLTPTLTIQELIFKYGKQIGVDEWGLQKITSVRENIANVVRKAKEYGVTIISGTDLGFETGLEEIDMGKNWMETVLLVERGGLSPIEALRASTYNAAMAIGINAGVIEIGKDADIIIINGDPTLNVREISKITHVIKNGKLTVENKSIKG
modifications: exemplary polypeptide
With B1 the “T50 (temperature at which 50% of the initial activity was maintained)” value [1] was >95 °C.

B2: SEQ ID NO: 348: another exemplary OTA-hydrolyzing polypeptide, amidohydrolase family; mature, processed species of SEQ ID NO: 349 (protein)
chain: RAHIVEPVAIKAKRVFTGVTGAVIENGVVIVDDKGRIAAISRVVPKGAKVIDLGDATLLPGFIDAHVHLSGEMSDNWYKDFRDRMLRFPAEQAHYAARNAKKTLMAGFTTVRDVGSADWQASALRNAVNAGVIVGPRILASNYAIGATGGHGDGTPFPPDRVAPDGPLKGVCNGADQCRAAVRYQIKYGADVIKFMPSGGVLSLSDPVDVPELTQDEINAIISEAHAWHRKVAAHAHGDEAARMAVKAGVDSIEHGTFLTDETLKQMKKQGTYLVATLFAGEWVGMKADNYPPAVAEKARAAAAQMQRMFARAVKIGVPIAFGTDAGVEPHGLNAHEFSLMVKNGMSPKAALLAATREAAKLLGVIDRTGTLEPGKAADMVAVRGDPLADIKATEQVIFVMKGGKIYRNEVE
modifications: exemplary polypeptide
With B2 the “T50 (temperature range in which 50% of the initial activity was lost after the incubation)” value [1] was 85-90 °C, the “Specific OTA detoxification activities in U/g at pH 6.0” value [2] was ~19 U/g and the “Specific OTA detoxification activities in U/g at pH 7.5” value [2] was “approximately 32 U/g”.

B3: 74 (protein)
chain: MTTRTRILTAFLSLLAANACAADAAPAAPHTVVLRAARMFDGASGKLVDHPQLTIVGNKIVRIAQGDKAEVPAGAEVVDLGDATLLPGFIDAHVHLSGQSSDNWYGDFFDNMMRFPAEQALYGAYYARITLEAGFTSVRDVGSTDWVALGLRNAIDAGKVPGPRMLVSNYLVGSTGGHADQDPIPPHKLPLAGPLQGVCNGPEECRAAVRYQIKYGANVIKFMPSGGVLSLSDPVDAPELSQDEMNAVIGESHAWGRKVAAHAHGDKAAKMAVAAGVDSIEHGSFIEDDTLRAMKAKNVYLVPTISAIAHVEEKIGTFPPVIAEKGRAAAAHLRQTFRHAVQIGVPIALGTDAGVGAHGSNAREFRYMVENGLTPAQALLAGTANAARLLGTFDRVGTLEAGKLADVVAVPGNPIADITVTERPLFVMKDGVVVRRDAVR
modifications: exemplary polypeptide
For B3, the “T50 (temperature at which 50% of the initial activity was maintained)” value [1] was <63.2 °C.

B4: 75 (protein)
chain: MTTRTRILTAFLSLLAANACAADAAPAAPHTVVLRAARMFDGASGKLVDHPQLTIVGNKIVRIAQGDKAEVPAGAEVVDLGDATLLPGFIDAHVHLSGQSSDNWYGDFFDNMMRFPAEQALYGAYYARITLEAGFTSVRDVGSTDWVALGLRNAIDAGKVPGPRMLVSNYAVGSTGGQADQDPIPPHKLPLAGPLQGVCNGPEECRAAVRYQIKYGANVIKFMPSGGVLSLSDPVDAPELSQDEMNAVIGESHAWGRKVAAHAHGDKAAKMAVAAGVDSIEHGSFIEDDTLRAMKAKNVYLVPTISAIAHVEEKIGTFPPVIAEKGRAAAAHLRQTFRHAVQIGVPIALGTDAGVGAHGSNAREFRYMVENGLTPAQALLAGTANAARLLGTFDRVGTLEAGKLADVVAVPGNPIADITVTERPLFVMKDGVVVRRDAVR
modifications: exemplary polypeptide
For B4, the “T50 (temperature at which 50% of the initial activity was maintained)” value [1] was 74.4-77.0 °C.

B5: 78 (protein)
chain: MTTRTRILTAFLSLLAANACAADAAPAAPHTVVLRAARMFDGASGKLVDHPQLTIVGNKIVRIAQGDKAEVPAGAEVVDLGDATLLPGFIDAHVHLSGQSSDNWYGDFFDNMMRFPAEQALYGAYYARITLEAGFTSVRDVGSTDWVALGLRNAIDAGKVPGPRMLVSNYAVGSTGGHADQDPIPPHKLPLAGPLQGVCNGPEECRAAVRYQIKYGANVIKFMPSGGVLSLSDPVDAPELSQDEMNAVIGESHAWGRKVAAHAHGDKAAKMAVAAGVDSIEHGSFIEDDTLRAMKAKNVYLVPTISGIAHTEEKIGTFPPVIAEKGRAAAAHLRQTFRHAVQIGVPIALGTDAGVGAHGSNAREFRYMVENGLTPAQALLAGTANAARLLGTFDRVGTLEAGKLADVVAVPGNPIADITVTERPLFVMKDGVVVRRDAVR
modifications: exemplary polypeptide
In the case of B5, the “T50 (temperature at which 50% of the initial activity was maintained)” value [1] is reported as 68.8-70.7 °C.

B6: 79 (protein)
chain: MTTRTRILTAFLSLLAANACAADAAPAAPHTVVLRAARMFDGASGKLVDHPQLTIVGNKIVRIAQGDKAEVPAGAEVVDLGDATLLPGFIDAHVHLSGQSSDNWYGDFFDNMMRFPAEQALYGAYYARITLEAGFTSVRDVGSTDWVALGLRNAIDAGKVPGPRMLVSNYAVGSTGGHADQDPIPPHKLPLAGPLQGVCNGPEECRAAVRYQIKYGANVIKFMPSGGVLSLSDPVDAPELSQDEMNAVIGESHAWGRKVAAHAHGDKAAKMAVAAGVDSIEHGSFIEDDTLRAMKAKNVYLVPTISGIAHVEEKIGTFPPVIAEKGRAAAAHLRQTFRHAVQIGVPIALGTDAGTGAHGSNAREFRYMVENGLTPAQALLAGTANAARLLGTFDRVGTLEAGKLADVVAVPGNPIADITVTERPLFVMKDGVVVRRDAVR
modifications: exemplary polypeptide
With B6 the “T50 (temperature at which 50% of the initial activity was maintained)” value [1] was 70.7-72.6 °C.

B7: 19 (protein)
chain: MLSLLAANACVADAAPAASRTIVLRAARMFDGASGKLVEHPQLTIVGNKIVRIAQSDNAEVPASAEVIDLGDATLLPGFIDAHVHLSGQSSDNWYGDFFDNMMRFPAEQALYGAYYACITLEAGFTSVRDLGSTDWVALGLRNAIDAGKVPGPRMLVSNYAVGSTGGHADQDPIPPHRLPLAGPLQGVCNGPEECRAAVRYQIKYGANVIKFMPSGGVLSLSDPVDAPELSQDEMNAVIGESHAWGRKVAAHAHGDKAAKMAVAAGVDSIEHGSFIEDDTLRAMKAKNVYLVPTISAIAHVEEKIATFPPVIAEKGRAAAAHSRQTFRHAVQIGVPIALGTDAGVGAHGTNAREFRYMVENGLTPVQSLLAGTANAARLLGIIDRVGTLEAGKLADIVAVPGNPVADITVTERPVFVMKDGVVVRRGAVR
modifications: polypeptide 5
For B7, the “T50 (temperature at which 50% of the initial activity was maintained)” value [1] was 65 °C, the “Specific OTA detoxification activities in U/g at pH 6.0” value [2] was 8.72 U/g and the “Specific OTA detoxification activities in U/g at pH 7.5” value [2] was 10.91 U/g.

B8: 20 (protein)
chain: MTTRFRILTAVLSLLAASACAADAAPATPHTVVLRAARMFDGASGKLVERPQLTIVGNKIVRIAQADKAEVPAGAEVIDLGDSTLLPGFIDAHVHLSGQGSDNWYGDFFDNMMRFPAEQALYGAYYARITLEAGFTSVRDLGSTDWVALGLRNAIDAGKVPGPRMLVSNYAVGSTGGHADQDPIPPHKLPLAGPLQGVCNGPEECRAAVRYQIKYGANVIKFMPSGGVLSLSDPVDAPELSQDEMNAVIGESHAWGRKVAAHAHGDKAAKMAVAAGVDSIEHGSFIEDDTLRAMKAKNVYLVPTISAIAHVEEKIGTFPPVIAEKGRAAAAHLRQTFRHAVQIGVPIALGTDAGVGAHGTNAREFRYMVENGLTPAQSLLAGTSNAARLLGTIDKVGTLEAGKLADVVAVPGNPIADITVTERPVFVMKDGVVVRRGAVR
modifications: polypeptide 6
With B8 the “T50 (temperature at which 50% of the initial activity was maintained)” value [1] was <45 °C, the “Specific OTA detoxification activities in U/g at pH 6.0” value [2] was 49.73 U/g and the “Specific OTA detoxification activities in U/g at pH 7.5” value [2] was 100.52 U/g.

B9: SEQ ID NO: 336: another exemplary OTA-hydrolyzing polypeptide, amidohydrolase family; mature, processed species of SEQ ID NO: 337 (protein)
chain: VPAPPRPAVLKAARIFDSVSGHLEEPGLVVVAGAKIQAVGSDARIPDNAQVIDLGDATLMPGFIDAHVHLSSEMSDKWYEDWYKSMVRFPAEQALYGAHYAKATLEAGITTVRDLGSSDYISLGLRNAIKAGQIPGPRMLVANYAIGSTGGHADQDPVPPQRLAPAGPIQGVCNGPDECRAAVRYQLKYGADVIKFMPSGGVLSLSDPVDTPELTQEEMNAIVSEAHAWKRKVAAHCHGDRAAKMAIAAGVDSIEHGTFLQDDTLQEMKDKHIYLVPTLSAGYWVGLKADTYPPVIAEKARAASRQMQKMFQRAVKIGVPIAMGTDAGVEPHGQNAREFSLMTTNGLPPAQALLAATAKGADLLGISDQTGTLQPGKYADIVAVGGNPLLDIKATEHPLLVMKEGVIYVGGK
modifications: exemplary polypeptide
In the case of B9, the “T50 (temperature range in which 50% of the initial activity was lost after the incubation)” value [1] is reported as 90-95 °C, the “Specific OTA detoxification activities in U/g at pH 6.0” value [2] is reported as ~22 U/g and the “Specific OTA detoxification activities in U/g at pH 7.5” value [2] is reported as “approximately 40 U/g”.
